Source: patent US20100216715A1 (Novo Nordisk, published 2010)

T1: human beta-Klotho (human, UniProt Q86Z14 1-1044)
T1 sequence (looked up): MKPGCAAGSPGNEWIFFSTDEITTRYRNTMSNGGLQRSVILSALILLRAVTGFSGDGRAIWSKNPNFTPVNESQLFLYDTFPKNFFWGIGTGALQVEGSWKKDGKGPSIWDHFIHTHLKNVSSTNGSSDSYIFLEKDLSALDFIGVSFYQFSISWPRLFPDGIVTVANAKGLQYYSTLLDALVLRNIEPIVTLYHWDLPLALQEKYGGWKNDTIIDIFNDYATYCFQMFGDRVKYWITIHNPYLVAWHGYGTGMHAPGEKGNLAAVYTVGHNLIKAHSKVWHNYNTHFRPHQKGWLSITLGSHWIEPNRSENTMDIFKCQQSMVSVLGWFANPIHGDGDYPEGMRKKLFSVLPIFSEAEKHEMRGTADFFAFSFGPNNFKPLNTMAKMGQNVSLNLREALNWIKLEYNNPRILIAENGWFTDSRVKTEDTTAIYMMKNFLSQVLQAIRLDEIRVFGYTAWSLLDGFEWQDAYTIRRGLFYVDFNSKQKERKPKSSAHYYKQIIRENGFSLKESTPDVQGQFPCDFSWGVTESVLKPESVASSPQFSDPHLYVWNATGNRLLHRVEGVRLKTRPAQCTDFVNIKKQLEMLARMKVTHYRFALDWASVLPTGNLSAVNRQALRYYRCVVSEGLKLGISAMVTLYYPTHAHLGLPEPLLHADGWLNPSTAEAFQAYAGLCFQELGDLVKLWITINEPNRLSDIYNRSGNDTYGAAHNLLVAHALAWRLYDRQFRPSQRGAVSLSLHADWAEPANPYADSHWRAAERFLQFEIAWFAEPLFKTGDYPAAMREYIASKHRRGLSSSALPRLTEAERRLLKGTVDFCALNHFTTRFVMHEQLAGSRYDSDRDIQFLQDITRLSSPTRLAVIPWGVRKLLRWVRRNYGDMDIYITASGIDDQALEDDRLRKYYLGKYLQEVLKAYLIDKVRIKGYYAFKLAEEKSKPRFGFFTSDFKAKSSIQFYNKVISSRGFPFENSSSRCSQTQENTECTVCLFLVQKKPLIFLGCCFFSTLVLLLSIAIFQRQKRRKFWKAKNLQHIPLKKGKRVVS


Target: T1, human beta-Klotho
Assay: cell-based or functional assay

Molecule	pERK-HEK293-Beta-klotho without HSA [EC50 (nM)] Median Value [nM]
(P143V, A145E, L146E, 148aD, P149L, P150R, I152H, 153aE, 153bS, 153cD, 153dM, A154F, P155S, Q156S, P158L, D159E, V160T, G161D, S163M, L166F, S167G, M168L, 169aT, P171L, S172E, Q173A, G174V, Y179F, A180E, S181K) Met-FGF21 (ligand)	9.5
(A26E, K56R, K59R, K69R, D102T, N121Q, K122R, Y179F, A180E, S181R) Gly-FGF21 (ligand) GHPIPDSSPLLQFGGQVRQRYLYTDDEQQTEAHLEIREDGTVGGAADQSPESLLQLRALRPGVIQILGVRTSRFLCQRPDGALYGSLHFDPEACSFRELLLETGYNVYQSEAHGLPLHLPGQRSPHRDPAPRGPARFLPLPGLPPALPEPPGILAPQPPDVGSSDPLSMVGPSQGRSPSFER	44
[28R, K56R, 59R, 69R, 102T, 121Q, 122R, 168L, 179F, 180E, 181R] Gly-FGF21 derivative of Example 47 (ligand, N-alpha-1-[2-(2-{2-[2-(2-{2-[(S)-4-carboxy-4-(17-carboxy-heptadecanoylamino)-butyrylamino]-ethoxy}-ethoxy)-acetylamino]-ethoxy}-ethoxy)-acetyl] on the N-terminal alpha amino group) GHPIPDSSPLLQFGGQVRQRYLYTDDAQRTEAHLEIREDGTVGGAADQSPESLLQLRALRPGVIQILGVRTSRFLCQRPDGALYGSLHFDPEACSFRELLLETGYNVYQSEAHGLPLHLPGQRSPHRDPAPRGPARFLPLPGLPPALPEPPGILAPQPPDVGSSDPLSLVGPSQGRSPSFER	10
(Q27E, K56R, K59R, K69R, D102T, N121Q, K122R, Y179F, A180E, S181R) Gly-FGF21 (ligand) GHPIPDSSPLLQFGGQVRQRYLYTDDAEQTEAHLEIREDGTVGGAADQSPESLLQLRALRPGVIQILGVRTSRFLCQRPDGALYGSLHFDPEACSFRELLLETGYNVYQSEAHGLPLHLPGQRSPHRDPAPRGPARFLPLPGLPPALPEPPGILAPQPPDVGSSDPLSMVGPSQGRSPSFER	36
(Q28R, K56R, K59R, K69R, D102T, N121Q, K122R, L166F, S167G, M168L, G170T) Gly-FGF21 (ligand) GHPIPDSSPLLQFGGQVRQRYLYTDDAQRTEAHLEIREDGTVGGAADQSPESLLQLRALRPGVIQILGVRTSRFLCQRPDGALYGSLHFDPEACSFRELLLETGYNVYQSEAHGLPLHLPGQRSPHRDPAPRGPARFLPLPGLPPALPEPPGILAPQPPDVGSSDPFGLVTPSQGRSPSYAS	1
(Q28R, K56R, K59R, K69R, D102T, N121Q, K122R, D159E, M168L, G174A, Y179F) Gly-FGF21 (ligand) GHPIPDSSPLLQFGGQVRQRYLYTDDAQRTEAHLEIREDGTVGGAADQSPESLLQLRALRPGVIQILGVRTSRFLCQRPDGALYGSLHFDPEACSFRELLLETGYNVYQSEAHGLPLHLPGQRSPHRDPAPRGPARFLPLPGLPPALPEPPGILAPQPPEVGSSDPLSLVGPSQARSPSFAS	15
(Q28R, K56R, K59R, K69R, D102T, N121Q, K122R, M168L, Y179F, A180E, S181R) Gly-FGF21 (ligand) GHPIPDSSPLLQFGGQVRQRYLYTDDAQRTEAHLEIREDGTVGGAADQSPESLLQLRALRPGVIQILGVRTSRFLCQRPDGALYGSLHFDPEACSFRELLLETGYNVYQSEAHGLPLHLPGQRSPHRDPAPRGPARFLPLPGLPPALPEPPGILAPQPPDVGSSDPLSLVGPSQGRSPSFER	29
(K56R, K59R, K69R, K122R) EEAEAGGAGGSGGS-FGF21 (ligand) EEAEAGGAGGSGGSHPIPDSSPLLQFGGQVRQRYLYTDDAQQTEAHLEIREDGTVGGAADQSPESLLQLRALRPGVIQILGVRTSRFLCQRPDGALYGSLHFDPEACSFRELLLEDGYNVYQSEAHGLPLHLPGNRSPHRDPAPRGPARFLPLPGLPPALPEPPGILAPQPPDVGSSDPLSMVGPSQGRSPSYAS	2
Met-FGF21 (ligand) MHPIPDSSPLLQFGGQVRQRYLYTDDAQQTEAHLEIREDGTVGGAADQSPESLLQLKALKPGVIQILGVKTSRFLCQRPDGALYGSLHFDPEACSFRELLLEDGYNVYQSEAHGLPLHLPGNKSPHRDPAPRGPARFLPLPGLPPALPEPPGILAPQPPDVGSSDPLSMVGPSQGRSPSYAS	1.6
(K56R, K59R, K69R, K122R) Gly-FGF21 (ligand) GHPIPDSSPLLQFGGQVRQRYLYTDDAQQTEAHLEIREDGTVGGAADQSPESLLQLRALRPGVIQILGVRTSRFLCQRPDGALYGSLHFDPEACSFRELLLEDGYNVYQSEAHGLPLHLPGNRSPHRDPAPRGPARFLPLPGLPPALPEPPGILAPQPPDVGSSDPLSMVGPSQGRSPSYAS	7.4
(K56R, K59R, K69R, K122R) Gly-FGF21 derivative of Example 53 (ligand, N-alpha-1-(2-{2-[2-(16-1H-tetrazol-5-yl-hexadecanoylamino)-ethoxy]-ethoxy}-acetyl) on the N-terminal alpha amino group) GHPIPDSSPLLQFGGQVRQRYLYTDDAQQTEAHLEIREDGTVGGAADQSPESLLQLRALRPGVIQILGVRTSRFLCQRPDGALYGSLHFDPEACSFRELLLEDGYNVYQSEAHGLPLHLPGNRSPHRDPAPRGPARFLPLPGLPPALPEPPGILAPQPPDVGSSDPLSMVGPSQGRSPSYAS	6.4
(S71C) Gly-FGF21 (ligand) GHPIPDSSPLLQFGGQVRQRYLYTDDAQQTEAHLEIREDGTVGGAADQSPESLLQLKALKPGVIQILGVKTCRFLCQRPDGALYGSLHFDPEACSFRELLLEDGYNVYQSEAHGLPLHLPGNKSPHRDPAPRGPARFLPLPGLPPALPEPPGILAPQPPDVGSSDPLSMVGPSQGRSPSYAS	2.5
(K56R, 59R, 69R, 122R, 168L) Gly-FGF21 derivative of Example 48 (ligand, N-alpha-1-[2-(2-{2-[2-(2-{2-[(S)-4-carboxy-4-(17-carboxy-heptadecanoylamino)-butyrylamino]-ethoxy}-ethoxy)-acetylamino]-ethoxy}-ethoxy)-acetyl] on the N-terminal alpha amino group) GHPIPDSSPLLQFGGQVRQRYLYTDDAQQTEAHLEIREDGTVGGAADQSPESLLQLRALRPGVIQILGVRTSRFLCQRPDGALYGSLHFDPEACSFRELLLEDGYNVYQSEAHGLPLHLPGNRSPHRDPAPRGPARFLPLPGLPPALPEPPGILAPQPPDVGSSDPLSLVGPSQGRSPSYAS	4.6
(K56R, K59R, K69R, K122R) Gly-FGF21 derivative of Example 46 (ligand, N-alpha-1-[2-(2-{2-[2-(2-{2-[(S)-4-carboxy-4-(17-carboxy-heptadecanoylamino)-butyrylamino]-ethoxy}-ethoxy)-acetylamino]-ethoxy}-ethoxy)-acetyl] on the N-terminal alpha amino group) GHPIPDSSPLLQFGGQVRQRYLYTDDAQQTEAHLEIREDGTVGGAADQSPESLLQLRALRPGVIQILGVRTSRFLCQRPDGALYGSLHFDPEACSFRELLLEDGYNVYQSEAHGLPLHLPGNRSPHRDPAPRGPARFLPLPGLPPALPEPPGILAPQPPDVGSSDPLSMVGPSQGRSPSYAS	3.9
(K56R, K59R, K69R, K122R) Gly-FGF21 derivative of Example 54 (ligand, N-alpha1-[4-(16-1H-tetrazol-5-yl-hexadecanoylsulfamoyl)-butyryl] on the N-terminal alpha amino group) GHPIPDSSPLLQFGGQVRQRYLYTDDAQQTEAHLEIREDGTVGGAADQSPESLLQLRALRPGVIQILGVRTSRFLCQRPDGALYGSLHFDPEACSFRELLLEDGYNVYQSEAHGLPLHLPGNRSPHRDPAPRGPARFLPLPGLPPALPEPPGILAPQPPDVGSSDPLSMVGPSQGRSPSYAS	4.2
(K56R, K59R, K69R, K122R, L166F, S167G, M168L, 169aT, P171L, S172E, Q173A, G174V, Y179F, A180E, S181R) Gly-FGF21 (ligand) GHPIPDSSPLLQFGGQVRQRYLYTDDAQQTEAHLEIREDGTVGGAADQSPESLLQLRALRPGVIQILGVRTSRFLCQRPDGALYGSLHFDPEACSFRELLLEDGYNVYQSEAHGLPLHLPGNRSPHRDPAPRGPARFLPLPGLPPALPEPPGILAPQPPDVGSSDPFGLVTGLEAVRSPSFER	3.3
(K56R, 59R, 69R, 122R, 166F, 167G, 168L, 169aT, 171L, 172E, 173A, 174V, 179F, 180E, 181R) Gly-FGF21 derivative of Example 49 (ligand, N-alpha-1-[2-(2-{2-[2-(2-{2-[(S)-4-carboxy-4-(17-carboxy-heptadecanoylamino)-butyrylamino]-ethoxy}-ethoxy)-acetylamino]-ethoxy}-ethoxy)-acetyl] on the N-terminal alpha amino group) GHPIPDSSPLLQFGGQVRQRYLYTDDAQQTEAHLEIREDGTVGGAADQSPESLLQLRALRPGVIQILGVRTSRFLCQRPDGALYGSLHFDPEACSFRELLLEDGYNVYQSEAHGLPLHLPGNRSPHRDPAPRGPARFLPLPGLPPALPEPPGILAPQPPDVGSSDPFGLVTGLEAVRSPSFER	1.2
(S71C, N121Q, L166F, S167G, M168L, 169aT, P171L, S172E, Q173A, G174V, Y179F, A180E, S181K) Gly-FGF21 (ligand) GHPIPDSSPLLQFGGQVRQRYLYTDDAQQTEAHLEIREDGTVGGAADQSPESLLQLKALKPGVIQILGVKTCRFLCQRPDGALYGSLHFDPEACSFRELLLEDGYNVYQSEAHGLPLHLPGQKSPHRDPAPRGPARFLPLPGLPPALPEPPGILAPQPPDVGSSDPFGLVTGLEAVRSPSFEK	1.1
(S71C, D102E, N121Q, L166F, S167G, M168L, 169aT, P171L, S172E, Q173A, G174V, Y179F, A180E, S181K) Gly-FGF21 (ligand) GHPIPDSSPLLQFGGQVRQRYLYTDDAQQTEAHLEIREDGTVGGAADQSPESLLQLKALKPGVIQILGVKTCRFLCQRPDGALYGSLHFDPEACSFRELLLEEGYNVYQSEAHGLPLHLPGQKSPHRDPAPRGPARFLPLPGLPPALPEPPGILAPQPPDVGSSDPFGLVTGLEAVRSPSFEK	1.8
(-1G, 71C, 121Q, 166F, 167G, 168L, 169aT, 171L, 172E, 173A, 174V, 179F, 180E, 181K) FGF21 derivative of Example 16 (ligand, S-71-({2-[2-(2-{2-[2-(2-{2-[(S)-4-carboxy-4-(17-carboxy-heptadecanoylamino)-butyrylamino]-ethoxy}-ethoxy)-acetylamino]-ethoxy}-ethoxy)-acetylamino]-ethylcarbamoyl}-methyl) on the thiol of Cys71) GHPIPDSSPLLQFGGQVRQRYLYTDDAQQTEAHLEIREDGTVGGAADQSPESLLQLKALKPGVIQILGVKTCRFLCQRPDGALYGSLHFDPEACSFRELLLEDGYNVYQSEAHGLPLHLPGQKSPHRDPAPRGPARFLPLPGLPPALPEPPGILAPQPPDVGSSDPFGLVTGLEAVRSPSFEK	1.4
